T1: SarA-his (Staphylococcus aureus N315, UniProt Q7A732 1-124)
T1 sequence: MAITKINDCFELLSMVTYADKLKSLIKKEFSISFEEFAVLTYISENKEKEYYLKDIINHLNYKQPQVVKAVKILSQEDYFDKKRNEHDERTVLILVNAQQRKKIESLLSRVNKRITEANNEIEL


Target: T1, SarA-his
Assay: EMSA; SarA-his 0-240 pM (so in the source), 10 pmol DNA; 10 mM HEPES pH 7.6, 1 mM EDTA, 2 mM DTT, 50 mM KCl, 0.05% Triton X-100, 5% glycerol; 20 min room temperature; […]
Settings: protein: recombinant; tags: N-terminal His6 (pET28a); chain copies: 2; label: none (GelRed stain); blunt

Row | Binder | binding result
1 | lpl-P (lpl cluster promoter, SarA box) (dsDNA) DNA 1: CCACGAGGATTTAATCATAAAATTTCCTCTAGTATTATTAATATTGGAATTTGAAC DNA 2: GTTCAAATTCCAATATTAATAATACTAGAGGAAATTTTATGATTAAATCCTCGTGG | binds
2 | lpl-PM (GC-rich SarA box mutant) (dsDNA) DNA 1: CCACGAGGGGGGGGGCGGGGGGGTTCCTCTAGTATTATTAATATTGGAATTTGAAC DNA 2: GTTCAAATTCCAATATTAATAATACTAGAGGAACCCCCCCGCCCCCCCCCTCGTGG | no binding

Source: publication PMC6561022, “β-Lactam Antibiotics Enhance the Pathogenicity of Methicillin-Resistant Staphylococcus aureus via SarA-Controlled Lipoprotein-Like Cluster Expression”
